Experimental data from the RNAGym collection of RNA variant scans (doi:10.7554/elife.80360).

B1: Hairpin Ribozyme (parent)
chain: GUCCUCUUUCACGUGCGCGUGAAAGAGAGAAGUGAACCAGAGAAACACACGUUGUGGUAUAUUACCUGGUA

Variants of: B1
Assay: self-cleavage, relative activity (ratio to wild type); higher = more cleavage; co-transcriptional

Variant	self-cleavage
U20C A26C	0.329
C50A C65A	0.142
C3A A41G	0.7
U8C A30U	0.0797
A26G C66U	0.429
U9A U55A	0.225
A41C U63C	0.192
A59C A71G	0.119
A49U U53C	0.124
A44U G69A	0.15
U7G U67G	0.283
C6U G56U	0.144
U7C C50U	0.523
G1C G29A	0.174
C4U A23G	0.299
A43G G54C	0.168
U9G C37U	0.5
G27U G34C	1.16
U2C U52C	0.0386
G54C G69A	0.0998
C18U A28G	1.26
G17A U70A	0.897
A43G G56A	0.0841
U5A A28C	0.297

Variant	self-cleavage
G17C U63G	0.125
G15A C65A	0.863
C18G U58G	0.89
C16U G32C	0.0977
G40U U52A	0.207
C16A U60G	0.451
A41C U60C	1.27
U52C G56C	0.165
A24U A59U	0.185
G21A A64C	0.207
U14A C18U	0.924
U7G U60A	0.795
U5A A30G	0.119
C18A G40U	0.174
G1U C65A	0.0897
G17A G19A	0.962
C18G	0.931
C4A G56A	0.114
A26C G27A	0.139
G34C G40A	0.576
U2G A11C	0.267
G19U A26U	0.682
G1A A41U	0.225
G27A U58G	0.151

Variant	self-cleavage
A28G G40C	0.166
A35C C38G	0.112
C12G G57A	0.152
C4U A47G	0.0924
G17A G27U	0.324
U52G G56U	0.131
U8C A11U	0.252
C3A A61G	0.186
A35C A61U	0.125
A28U G40U	0.13
A24C A47G	0.113
U9C G69U	0.256
U58A U60C	0.715
C6U C66G	0.194
G19U C37A	0.34
C6G A41C	0.552
C6G A44C	0.17
C10U G19U	0.672
G32U U63A	0.172
G19C U53A	0.861
C50U U52A	0.456
G1C G17U	0.204
C12G C37U	0.445
A22C G32A	0.178

Variant	self-cleavage
G40A U70A	0.158
U33A U58C	0.0877
U5G G32A	0.0653
C4G U55C	0.122
A39C G56C	0.144
G40A G69U	0.197
C46G A61C	0.154
C4G G25U	0.177
G27U C50U	0.214
A41C G51A	1.33
G21U U60A	0.851
A44U A64G	0.202
C16U C18U	0.979
G29A U62C	0.0819
U9C G57U	0.185
G32C C37U	0.131
U20C A23U	0.667
A35C A47U	0.179
C16G C38G	0.191
C48A G54U	0.176
C48A G54C	0.0747
C18G A45G	0.0821
C10A C65G	0.388
G1A G21A	0.154

Variant	self-cleavage
A47C U63A	0.127
U8A G13U	0.551
G25A U70G	0.509
U9A A61U	0.185
C3A G68U	0.195
C16U G42A	0.225
A44U G68U	0.187
U8C U60C	1.23
A43G G57U	0.151
G1A G42C	0.213
C18G A41C	0.952
G42C G51C	0.227
A31G U58G	0.404
G42A A47C	0.219
C6A A43C	0.197
G51A U67C	0.296
C12G U63C	0.296
C3A A47U	0.112
C10A G13C	0.411
G13C U20A	0.492
U8C G13A	0.722
A24C A64C	0.192
A22U A26G	0.743
U8G A49U	0.164

Variant	self-cleavage
C12U U60A	0.766
G25A A71C	1.1
G27U C38A	0.12
U55A U58A	0.273
C18G A22U	0.801
A26C U60C	0.602
A35U A61U	0.0854
A24C C37U	0.455
G42A U60G	0.157
C12A A47G	0.0872
C46A A61C	0.311
U20A G57A	0.204
A41G U55C	0.23
A36G C46A	0.0586
C38U G51C	0.583
C50G U70C	0.498
A39U U62G	0.088
U8C G57A	0.119
C4A U55C	0.0693
A41C G57U	0.502
A35G A45G	0.0332
A61G U70C	0.146
U7A G57C	0.151
C18G U52G	0.538

Variant	self-cleavage
G15C C65A	0.928
C10G A41C	0.777
G25A C50A	0.107
U7G G42A	0.218
C16G U55G	0.247
C4G U7G	0.144
U8A G19A	0.558
C18G A59G	0.284
U5C U52G	0.608
A43U C50U	0.116
U14A C66A	0.0937
A24U G54C	0.423
A35G U62C	0.338
G1A U33A	0.175
U55G U67C	0.181
C3U C6G	0.288
A44U G57A	0.0753
G19C C46A	0.303
A47G U58G	0.119
C16G U62C	0.213
C12U C37A	0.282
G32A C48G	0.117
A41G A49G	0.504
